Usually Kd stands for the free concentration of one partner at which half of the binding sites on the other are occupied at equilibrium, for simple one-to-one binding.

The values that follow come from patent US20200247855A1 (published 2020).

One test has as its target T1, CCL17_HUMAN (human, UniProt Q92583 24-94).
T1 chain: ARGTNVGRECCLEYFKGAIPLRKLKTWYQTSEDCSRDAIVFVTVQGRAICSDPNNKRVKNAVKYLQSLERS
The experiment in a line: BLI. For orientation: Biolayer interferometry detects binding as a change in optical thickness at a sensor tip.

The target in the next test is CCL2_HUMAN (human, UniProt P13500 24-99). The test can be described thus: BLI.
The target in a further test is T2, CCL1_HUMAN (human, UniProt P22362 24-96).
T2 chain: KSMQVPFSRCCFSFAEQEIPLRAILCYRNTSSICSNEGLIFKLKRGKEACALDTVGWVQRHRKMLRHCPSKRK
The test can be described thus: BLI.

For a further test, the target named is T3, CCL3L1_HUMAN (human, UniProt P16619 24-93).
T3 chain: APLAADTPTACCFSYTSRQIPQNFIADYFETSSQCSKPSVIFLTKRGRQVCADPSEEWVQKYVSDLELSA
The experiment in a line: BLI.

Another test has as its target T4, CCL5_HUMAN (human, UniProt P13501 24-91).
T4 chain: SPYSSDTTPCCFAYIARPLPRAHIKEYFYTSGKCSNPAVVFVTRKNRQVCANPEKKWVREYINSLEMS
The experiment in a line: BLI.

Another test concerns the target CCL7_HUMAN (human, UniProt P80098 24-99). The test can be described thus: BLI.
The target in the next test is T5, CCL23_HUMAN (human, UniProt P55773 22-120).
T5 chain: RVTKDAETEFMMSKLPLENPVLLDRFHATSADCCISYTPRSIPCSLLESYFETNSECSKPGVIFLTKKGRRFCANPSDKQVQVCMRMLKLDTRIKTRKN
The experiment in a line: BLI.

For another test, the target named is CCL13_HUMAN (human, UniProt Q99616 24-98). The experiment in a line: BLI.
For a further test, the target named is T6, CCL4L1_HUMAN (human, UniProt Q8NHW4 24-92).
T6 chain: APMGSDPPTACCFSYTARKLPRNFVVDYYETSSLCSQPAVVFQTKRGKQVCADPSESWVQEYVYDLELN
The experiment in a line: BLI.

In a further test the target is T7, CCL24_HUMAN (human, UniProt O00175 27-104).
T7 chain: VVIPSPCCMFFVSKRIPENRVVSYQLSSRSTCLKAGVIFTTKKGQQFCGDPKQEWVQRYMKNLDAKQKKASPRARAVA
The test can be described thus: BLI.

For another test, the target named is T8, CCL15_HUMAN (human, UniProt Q16663 22-113).
T8 chain: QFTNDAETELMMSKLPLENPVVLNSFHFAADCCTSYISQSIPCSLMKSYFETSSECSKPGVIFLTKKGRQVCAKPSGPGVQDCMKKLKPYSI
The test can be described thus: BLI.

Another test addresses T9, CCL19_HUMAN (human, UniProt Q99731 22-98).
T9 chain: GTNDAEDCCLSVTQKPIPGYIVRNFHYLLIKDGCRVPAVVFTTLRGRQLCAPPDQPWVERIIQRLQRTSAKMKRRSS
The test can be described thus: BLI.

A further test concerns the target T10, CCL18_HUMAN (human, UniProt P55774 21-89).
T10 chain: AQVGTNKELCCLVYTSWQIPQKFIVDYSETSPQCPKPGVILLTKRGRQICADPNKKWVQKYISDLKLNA
The test can be described thus: BLI.

For the next test, the target named is CCL20_HUMAN (human, UniProt P78556 27-96). The experiment in a line: BLI.
In another test the target is T11, CCL21_HUMAN (human, UniProt O00585 24-134).
T11 chain: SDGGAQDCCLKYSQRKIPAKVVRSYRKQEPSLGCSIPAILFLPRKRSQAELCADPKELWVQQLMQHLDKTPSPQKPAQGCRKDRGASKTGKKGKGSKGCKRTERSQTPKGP
The experiment in a line: BLI.

The target of the next test is T12, CCL4_HUMAN (human, UniProt P13236 24-92).
T12 chain: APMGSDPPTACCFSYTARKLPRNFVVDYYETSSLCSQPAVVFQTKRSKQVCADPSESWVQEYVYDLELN
The experiment in a line: BLI.

In another test the target is T13, CCL8_HUMAN (human, UniProt P80075 24-99).
T13 chain: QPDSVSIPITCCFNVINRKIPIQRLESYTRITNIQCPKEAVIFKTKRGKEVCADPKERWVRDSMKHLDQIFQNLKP
The test can be described thus: BLI.

A further test deals with T14, CCL22_HUMAN (human, UniProt O00626 25-93).
T14 chain: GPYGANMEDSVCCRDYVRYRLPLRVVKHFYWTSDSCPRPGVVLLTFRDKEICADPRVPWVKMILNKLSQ
The experiment in a line: BLI.

In another test the target is T15, CCL16_HUMAN (human, UniProt O15467 24-120).
T15 chain: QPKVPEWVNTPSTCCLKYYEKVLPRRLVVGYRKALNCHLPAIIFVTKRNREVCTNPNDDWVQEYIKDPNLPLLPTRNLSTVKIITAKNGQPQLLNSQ
The experiment in a line: BLI.

Another test deals with CCL11_HUMAN (human, UniProt P51671 24-97). The experiment in a line: BLI.
A further test has as its target T16, CCL14_HUMAN (human, UniProt Q16627 22-93).
T16 chain: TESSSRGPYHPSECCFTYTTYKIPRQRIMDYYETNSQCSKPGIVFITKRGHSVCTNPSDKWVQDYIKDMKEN
The experiment in a line: BLI.

The target in the next test is T17, CCL3_HUMAN (human, UniProt P10147 24-92).
T17 chain: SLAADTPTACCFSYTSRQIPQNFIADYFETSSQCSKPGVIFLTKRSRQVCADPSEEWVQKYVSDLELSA
The test can be described thus: BLI.

Test [1] has as its target T18, CXCL3_HUMAN (human, UniProt P19876 35-107). The test can be described thus: BLI; previously obtained data.
The target of test [2] is CXCL5. The test can be described thus: BLI.
Test [3] deals with CXCL6. The experiment in a line: BLI.
Test [4] addresses CXCL2. The experiment in a line: BLI.
For test [5], the target named is T18, CXCL3_HUMAN. The test can be described thus: BLI.
The target in test [6] is T19, CXCL8_HUMAN (human, UniProt P10145 28-99). The experiment in a line: BLI.
For test [7], the target named is T20, CXCL1_HUMAN (human, UniProt P09341 35-107). The experiment in a line: BLI.
The next test addresses CXCL2_HUMAN. The experiment in a line: BLI.
In another test the target is CXCL5_HUMAN. The experiment in a line: BLI.
The target of another test is CXCL6_HUMAN. The test can be described thus: BLI.
Test [8] addresses T19, CXCL8_HUMAN. The experiment in a line: BLI. This is another data set of the same source.
Test [9] has as its target T20, CXCL1_HUMAN. The test can be described thus: BLI. The source holds these as a separate data set.
For test [10], the target named is CXCL6. The experiment in a line: BLI; previously obtained data.
Test [11] concerns the target CXCL5. The test can be described thus: BLI. This is another data set of the same source.
For test [12], the target named is CXCL2. The experiment in a line: BLI. The source holds these as a separate data set.

Like-named read-outs stand apart in the source and are kept apart here.

T18 sequence (P19876 35-107): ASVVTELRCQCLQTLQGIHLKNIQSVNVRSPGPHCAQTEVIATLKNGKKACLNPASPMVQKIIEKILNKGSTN
T20 sequence (P09341 35-107): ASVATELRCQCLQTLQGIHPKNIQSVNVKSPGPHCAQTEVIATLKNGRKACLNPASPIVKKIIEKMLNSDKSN
T19 sequence (P10145 28-99): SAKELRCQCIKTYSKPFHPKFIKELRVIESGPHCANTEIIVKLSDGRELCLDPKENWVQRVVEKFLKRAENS
CCL20_HUMAN, sequence (P78556 27-96): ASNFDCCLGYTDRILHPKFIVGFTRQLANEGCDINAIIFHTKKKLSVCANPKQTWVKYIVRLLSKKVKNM
CCL2_HUMAN, sequence (P13500 24-99): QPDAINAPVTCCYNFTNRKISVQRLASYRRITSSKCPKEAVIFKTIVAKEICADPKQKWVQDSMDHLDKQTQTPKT
CCL7_HUMAN, sequence (P80098 24-99): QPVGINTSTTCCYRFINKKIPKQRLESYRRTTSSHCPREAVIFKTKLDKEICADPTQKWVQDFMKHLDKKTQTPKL
CCL13_HUMAN, sequence (Q99616 24-98): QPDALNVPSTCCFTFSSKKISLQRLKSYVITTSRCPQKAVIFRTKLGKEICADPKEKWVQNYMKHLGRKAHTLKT
CCL11_HUMAN, sequence (P51671 24-97): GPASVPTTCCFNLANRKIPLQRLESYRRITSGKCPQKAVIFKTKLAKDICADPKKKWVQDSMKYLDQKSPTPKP

B1: P991_AMBCA (other)
chain: ENGEGTTQPDYDNSTDYYNYEDFKCTCPAPHLNNTNGTVMKPIGCYYTCNVTRCTAPDTYPCYNLTEHQAKNLTTSPTTLCAVGNCDHGICVPNGTKELCFKAPNLEE
Regarding B1, the Kd in the test with CCL17_HUMAN was 7.37 nM; with CCL2_HUMAN, 24.7 nM; in the test with CCL1_HUMAN, 8.6 nM; with CCL3L1_HUMAN, 2.99 nM; with CCL5_HUMAN, 0.869 nM; in the test with CCL7_HUMAN, 0.241 nM. In addition, the Kd with CCL23_HUMAN was 5.87 nM; with CCL13_HUMAN it was 0.191 nM; with CCL4L1_HUMAN, 1.34 nM; with CCL24_HUMAN, 5.42 nM; in the test with CCL15_HUMAN, 109 nM; in the test with CCL19_HUMAN, 12 nM. The dissociation constant (Kd) with CCL18_HUMAN was 0.252 nM; in the test with CCL20_HUMAN it was 15.4 nM; with CCL21_HUMAN it was 26.1 nM; with CCL4_HUMAN, 3.68 nM; in the test with CCL8_HUMAN, 15.9 nM; in the test with CCL22_HUMAN, 3.01 nM. For the same molecule, the Kd with CCL16_HUMAN amounted to 0.536 nM; with CCL11_HUMAN it was 1.9 nM; with CCL14_HUMAN, 0.711 nM; with CCL3_HUMAN, 2.24 nM.

B2: P1156_IXORI (other)
chain: ADDDNELFTVQYCGMNCTKDEGGTWTGCTGKKEGCKCYHESGKNYGLCLSTEYTDFSQYGNPSDSEIEAAKPKRSDTLSH
Turning to B2, the Kd with CXCL3_HUMAN [1] was determined as 70.4 nM; with CXCL5 [2], 29.8 nM; with CXCL6 [3], 62.7 nM; with CXCL2 [4], 50.6 nM; with CXCL3_HUMAN [5] it was 70.4 nM; with CXCL8_HUMAN [6], 2.9 nM. For the same molecule, the Kd with CXCL1_HUMAN [7] was found to be 5.8 nM; with CXCL2_HUMAN, 17 nM; in the test with CXCL5_HUMAN, 71.9 nM; with CXCL6_HUMAN it was 117 nM; in the test with CXCL8_HUMAN [8], 4.84 nM; with CXCL1_HUMAN [9] it was 6.53 nM.

B3: P1156 (other)
chain: ADDDNELFTVQYCGMNCTKDEGGTWTGCTGKKEGCKCYHESGKNYGLCLSTEYTDFSQYGNPSDSEIEAAKPKRSDTLSH
As for B3, the figures for the Kd with CXCL6 [10], with CXCL5 [11] and with CXCL2 [12] were 62.7 nM, 39.9 nM and 30.3 nM, respectively.
